Experimental findings from patent publication US9957297B2, “Template-fixed peptidomimetics as inhibitors of FPR1” (POLYPHOR AG, priority 2011, dated 2018) are described below.

This assay addresses T1, Formyl-Peptide Receptor 1 (UniProt P21462 1-350, limits assumed).
T1 sequence (looked up): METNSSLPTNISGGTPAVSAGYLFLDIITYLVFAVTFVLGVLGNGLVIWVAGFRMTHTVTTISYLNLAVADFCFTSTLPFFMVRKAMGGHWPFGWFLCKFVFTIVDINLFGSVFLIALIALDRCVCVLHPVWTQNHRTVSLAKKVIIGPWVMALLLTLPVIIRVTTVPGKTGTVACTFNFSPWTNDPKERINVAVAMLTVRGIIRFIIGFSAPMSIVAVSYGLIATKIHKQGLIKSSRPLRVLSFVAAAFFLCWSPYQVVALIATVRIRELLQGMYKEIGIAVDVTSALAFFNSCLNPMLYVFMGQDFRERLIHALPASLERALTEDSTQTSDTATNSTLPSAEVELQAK
The experiment in a line: cell-based or functional assay.

Bridges are numbered along the chain shown (N, C = ends). [ ]: non-standard residue; d: D form. Dab = NCC[C@H](N)C(=O)O

B1: cyclo(-Tyr-His-Thr-Cys-His-Gly-^DPro-Trp-Thr-Ile-Cys-Tyr-Gln-Lys-^DPro-Pro-) (peptide)
peptide: cyclo(YHTCHG[dP]WTICYQK[dP]P)
modifications: disulfide 4-11
SMILES: CC[C@H](C)[C@@H]1NC(=O)[C@H]([C@@H](C)O)NC(=O)[C@H](Cc2c[nH]c3ccccc23)NC(=O)[C@H]2CCCN2C(=O)CNC(=O)[C@H](Cc2c[nH]cn2)NC(=O)[C@@H]2CSSC[C@H](NC1=O)C(=O)N[C@@H](Cc1ccc(O)cc1)C(=O)N[C@@H](CCC(N)=O)C(=O)N[C@@H](CCCCN)C(=O)N1CCC[C@@H]1C(=O)N1CCC[C@H]1C(=O)N[C@@H](Cc1ccc(O)cc1)C(=O)N[C@@H](Cc1c[nH]cn1)C(=O)N[C@@H]([C@@H](C)O)C(=O)N2
As to B1, the “β-Arrestin IC50” value came out at 178 nM.

B2: cyclo(-Dab-His-Lys-Cys-His-Gly-^DPro-Trp-Thr-Ile-Cys-Tyr-Glu-Lys-^DPro-Glu-) (peptide)
peptide: cyclo([Dab]HKCHG[dP]WTICYEK[dP]E)
modifications: disulfide 4-11
SMILES: CC[C@H](C)[C@@H]1NC(=O)[C@H]([C@@H](C)O)NC(=O)[C@H](Cc2c[nH]c3ccccc23)NC(=O)[C@H]2CCCN2C(=O)CNC(=O)[C@H](Cc2c[nH]cn2)NC(=O)[C@@H]2CSSC[C@H](NC1=O)C(=O)N[C@@H](Cc1ccc(O)cc1)C(=O)N[C@@H](CCC(=O)O)C(=O)N[C@@H](CCCCN)C(=O)N1CCC[C@@H]1C(=O)N[C@@H](CCC(=O)O)C(=O)N[C@@H](CCN)C(=O)N[C@@H](Cc1c[nH]cn1)C(=O)N[C@@H](CCCCN)C(=O)N2
Take B2: the “β-Arrestin IC50” value is 144 nM.

B3: cyclo(-Tyr-His-Ala-Cys-His-Gly-^DPro-Trp-Thr-Ile-Cys-Tyr-Trp-Lys-^DPro-Pro-) (peptide)
peptide: cyclo(YHACHG[dP]WTICYWK[dP]P)
modifications: disulfide 4-11
SMILES: CC[C@H](C)[C@@H]1NC(=O)[C@H]([C@@H](C)O)NC(=O)[C@H](Cc2c[nH]c3ccccc23)NC(=O)[C@H]2CCCN2C(=O)CNC(=O)[C@H](Cc2c[nH]cn2)NC(=O)[C@@H]2CSSC[C@H](NC1=O)C(=O)N[C@@H](Cc1ccc(O)cc1)C(=O)N[C@@H](Cc1c[nH]c3ccccc13)C(=O)N[C@@H](CCCCN)C(=O)N1CCC[C@@H]1C(=O)N1CCC[C@H]1C(=O)N[C@@H](Cc1ccc(O)cc1)C(=O)N[C@@H](Cc1c[nH]cn1)C(=O)N[C@@H](C)C(=O)N2
In the case of B3, the “β-Arrestin IC50” value amounted to 36 nM.

B4: cyclo(-Tyr-His-Ala-Cys-Trp-Gly-^DPro-Trp-Thr-Ile-Cys-Tyr-Gln-Ala-^DPro-Pro-) (peptide)
peptide: cyclo(YHACWG[dP]WTICYQA[dP]P)
modifications: disulfide 4-11
SMILES: CC[C@H](C)[C@@H]1NC(=O)[C@H]([C@@H](C)O)NC(=O)[C@H](Cc2c[nH]c3ccccc23)NC(=O)[C@H]2CCCN2C(=O)CNC(=O)[C@H](Cc2c[nH]c3ccccc23)NC(=O)[C@@H]2CSSC[C@H](NC1=O)C(=O)N[C@@H](Cc1ccc(O)cc1)C(=O)N[C@@H](CCC(N)=O)C(=O)N[C@@H](C)C(=O)N1CCC[C@@H]1C(=O)N1CCC[C@H]1C(=O)N[C@@H](Cc1ccc(O)cc1)C(=O)N[C@@H](Cc1c[nH]cn1)C(=O)N[C@@H](C)C(=O)N2
As for B4, the “β-Arrestin IC50” value was determined as 76 nM.

B5: cyclo(-Glu-His-Lys-Cys-His-Gly-^DPro-Trp-Thr-Ile-Cys-Tyr-Glu-Lys-^DPro-Pro-) (peptide)
peptide: cyclo(EHKCHG[dP]WTICYEK[dP]P)
modifications: disulfide 4-11
SMILES: CC[C@H](C)[C@@H]1NC(=O)[C@H]([C@@H](C)O)NC(=O)[C@H](Cc2c[nH]c3ccccc23)NC(=O)[C@H]2CCCN2C(=O)CNC(=O)[C@H](Cc2c[nH]cn2)NC(=O)[C@@H]2CSSC[C@H](NC1=O)C(=O)N[C@@H](Cc1ccc(O)cc1)C(=O)N[C@@H](CCC(=O)O)C(=O)N[C@@H](CCCCN)C(=O)N1CCC[C@@H]1C(=O)N1CCC[C@H]1C(=O)N[C@@H](CCC(=O)O)C(=O)N[C@@H](Cc1c[nH]cn1)C(=O)N[C@@H](CCCCN)C(=O)N2
As for B5, the “β-Arrestin IC50” value came to 165 nM.

B6: cyclo(-Tyr-His-Lys-Cys-Trp-Gly-^DPro-Trp-Thr-Ile-Cys-Tyr-Gln-Lys-^DPro-Pro-) (peptide)
peptide: cyclo(YHKCWG[dP]WTICYQK[dP]P)
modifications: disulfide 4-11
SMILES: CC[C@H](C)[C@@H]1NC(=O)[C@H]([C@@H](C)O)NC(=O)[C@H](Cc2c[nH]c3ccccc23)NC(=O)[C@H]2CCCN2C(=O)CNC(=O)[C@H](Cc2c[nH]c3ccccc23)NC(=O)[C@@H]2CSSC[C@H](NC1=O)C(=O)N[C@@H](Cc1ccc(O)cc1)C(=O)N[C@@H](CCC(N)=O)C(=O)N[C@@H](CCCCN)C(=O)N1CCC[C@@H]1C(=O)N1CCC[C@H]1C(=O)N[C@@H](Cc1ccc(O)cc1)C(=O)N[C@@H](Cc1c[nH]cn1)C(=O)N[C@@H](CCCCN)C(=O)N2
With B6, the “β-Arrestin IC50” value came out at 71 nM.

B7: cyclo(-Tyr-His-Ala-Cys-Trp-Gly-^DPro-Trp-Thr-Ile-Cys-Tyr-Trp-Lys-^DPro-Pro-) (peptide)
peptide: cyclo(YHACWG[dP]WTICYWK[dP]P)
modifications: disulfide 4-11
SMILES: CC[C@H](C)[C@@H]1NC(=O)[C@H]([C@@H](C)O)NC(=O)[C@H](Cc2c[nH]c3ccccc23)NC(=O)[C@H]2CCCN2C(=O)CNC(=O)[C@H](Cc2c[nH]c3ccccc23)NC(=O)[C@@H]2CSSC[C@H](NC1=O)C(=O)N[C@@H](Cc1ccc(O)cc1)C(=O)N[C@@H](Cc1c[nH]c3ccccc13)C(=O)N[C@@H](CCCCN)C(=O)N1CCC[C@@H]1C(=O)N1CCC[C@H]1C(=O)N[C@@H](Cc1ccc(O)cc1)C(=O)N[C@@H](Cc1c[nH]cn1)C(=O)N[C@@H](C)C(=O)N2
Take B7: the “β-Arrestin IC50” value came out at 62 nM.

B8: cyclo(-Tyr-His-Ile-Cys-His-Gly-^DPro-Trp-Thr-Ile-Cys-Tyr-Gln-Lys-^DPro-Pro-) (peptide)
peptide: cyclo(YHICHG[dP]WTICYQK[dP]P)
modifications: disulfide 4-11
SMILES: CC[C@H](C)[C@@H]1NC(=O)[C@H](Cc2c[nH]cn2)NC(=O)[C@H](Cc2ccc(O)cc2)NC(=O)[C@@H]2CCCN2C(=O)[C@H]2CCCN2C(=O)[C@H](CCCCN)NC(=O)[C@H](CCC(N)=O)NC(=O)[C@H](Cc2ccc(O)cc2)NC(=O)[C@@H]2CSSC[C@H](NC1=O)C(=O)N[C@@H](Cc1c[nH]cn1)C(=O)NCC(=O)N1CCC[C@@H]1C(=O)N[C@@H](Cc1c[nH]c3ccccc13)C(=O)N[C@@H]([C@@H](C)O)C(=O)N[C@@H]([C@@H](C)CC)C(=O)N2
Take B8: the “β-Arrestin IC50” value turned out to be 35 nM.

B9: cyclo(-Tyr-His-Trp-Cys-His-Gly-^DPro-Trp-Thr-Ile-Cys-Tyr-Gln-Lys-^DPro-Pro-) (peptide)
peptide: cyclo(YHWCHG[dP]WTICYQK[dP]P)
modifications: disulfide 4-11
SMILES: CC[C@H](C)[C@@H]1NC(=O)[C@H]([C@@H](C)O)NC(=O)[C@H](Cc2c[nH]c3ccccc23)NC(=O)[C@H]2CCCN2C(=O)CNC(=O)[C@H](Cc2c[nH]cn2)NC(=O)[C@@H]2CSSC[C@H](NC1=O)C(=O)N[C@@H](Cc1ccc(O)cc1)C(=O)N[C@@H](CCC(N)=O)C(=O)N[C@@H](CCCCN)C(=O)N1CCC[C@@H]1C(=O)N1CCC[C@H]1C(=O)N[C@@H](Cc1ccc(O)cc1)C(=O)N[C@@H](Cc1c[nH]cn1)C(=O)N[C@@H](Cc1c[nH]c3ccccc13)C(=O)N2
Take B9: the “β-Arrestin IC50” value was determined as 177 nM.

B10: cyclo(-Tyr-His-Trp-Cys-Trp-Gly-^DPro-Trp-Thr-Ile-Cys-Tyr-Gln-Lys-^DPro-Pro-) (peptide)
peptide: cyclo(YHWCWG[dP]WTICYQK[dP]P)
modifications: disulfide 4-11
SMILES: CC[C@H](C)[C@@H]1NC(=O)[C@H]([C@@H](C)O)NC(=O)[C@H](Cc2c[nH]c3ccccc23)NC(=O)[C@H]2CCCN2C(=O)CNC(=O)[C@H](Cc2c[nH]c3ccccc23)NC(=O)[C@@H]2CSSC[C@H](NC1=O)C(=O)N[C@@H](Cc1ccc(O)cc1)C(=O)N[C@@H](CCC(N)=O)C(=O)N[C@@H](CCCCN)C(=O)N1CCC[C@@H]1C(=O)N1CCC[C@H]1C(=O)N[C@@H](Cc1ccc(O)cc1)C(=O)N[C@@H](Cc1c[nH]cn1)C(=O)N[C@@H](Cc1c[nH]c3ccccc13)C(=O)N2
On to B10, for which the “β-Arrestin IC50” value was determined as 89 nM.

B11: cyclo(-Tyr-His-Glu-Cys-His-Gly-^DPro-Trp-Thr-Ile-Cys-Tyr-Gln-Lys-^DPro-Pro-) (peptide)
peptide: cyclo(YHECHG[dP]WTICYQK[dP]P)
modifications: disulfide 4-11
SMILES: CC[C@H](C)[C@@H]1NC(=O)[C@H]([C@@H](C)O)NC(=O)[C@H](Cc2c[nH]c3ccccc23)NC(=O)[C@H]2CCCN2C(=O)CNC(=O)[C@H](Cc2c[nH]cn2)NC(=O)[C@@H]2CSSC[C@H](NC1=O)C(=O)N[C@@H](Cc1ccc(O)cc1)C(=O)N[C@@H](CCC(N)=O)C(=O)N[C@@H](CCCCN)C(=O)N1CCC[C@@H]1C(=O)N1CCC[C@H]1C(=O)N[C@@H](Cc1ccc(O)cc1)C(=O)N[C@@H](Cc1c[nH]cn1)C(=O)N[C@@H](CCC(=O)O)C(=O)N2
B11: the “β-Arrestin IC50” value stood at 321 nM.

B12: cyclo(-Tyr-His-Ala-Cys-Trp-Gly-^DPro-Trp-Thr-Ile-Cys-Tyr-Glu-Lys-^DPro-Pro-) (peptide)
peptide: cyclo(YHACWG[dP]WTICYEK[dP]P)
modifications: disulfide 4-11
SMILES: CC[C@H](C)[C@@H]1NC(=O)[C@H]([C@@H](C)O)NC(=O)[C@H](Cc2c[nH]c3ccccc23)NC(=O)[C@H]2CCCN2C(=O)CNC(=O)[C@H](Cc2c[nH]c3ccccc23)NC(=O)[C@@H]2CSSC[C@H](NC1=O)C(=O)N[C@@H](Cc1ccc(O)cc1)C(=O)N[C@@H](CCC(=O)O)C(=O)N[C@@H](CCCCN)C(=O)N1CCC[C@@H]1C(=O)N1CCC[C@H]1C(=O)N[C@@H](Cc1ccc(O)cc1)C(=O)N[C@@H](Cc1c[nH]cn1)C(=O)N[C@@H](C)C(=O)N2
Regarding B12, the “β-Arrestin IC50” value was determined as 68 nM.

B13: cyclo(-Tyr-His-Ala-Cys-Trp-Gly-^DPro-Trp-Thr-Ile-Cys-Tyr-Gln-Glu-^DPro-Pro-) (peptide)
peptide: cyclo(YHACWG[dP]WTICYQE[dP]P)
modifications: disulfide 4-11
SMILES: CC[C@H](C)[C@@H]1NC(=O)[C@H]([C@@H](C)O)NC(=O)[C@H](Cc2c[nH]c3ccccc23)NC(=O)[C@H]2CCCN2C(=O)CNC(=O)[C@H](Cc2c[nH]c3ccccc23)NC(=O)[C@@H]2CSSC[C@H](NC1=O)C(=O)N[C@@H](Cc1ccc(O)cc1)C(=O)N[C@@H](CCC(N)=O)C(=O)N[C@@H](CCC(=O)O)C(=O)N1CCC[C@@H]1C(=O)N1CCC[C@H]1C(=O)N[C@@H](Cc1ccc(O)cc1)C(=O)N[C@@H](Cc1c[nH]cn1)C(=O)N[C@@H](C)C(=O)N2
With B13, the “β-Arrestin IC50” value was 63 nM.
